Measurements reported in the supplement of paper PMC7125110.
± gives the standard error. Fewer inactive variants are shown than the library holds.

B1: glmS ribozyme (parent)
chain: AUAAAAGCGCCAGAACUACAGAAAUGUAGUUGACGAGGAGGAGGUUUAUCGAAUUUUCGGCGGAUGCCUCCAAA

Variants of: B1
Assay: self-cleavage kobs at 10000 uM GlcN6P; higher = faster cleavage; RNA array
Settings: with glucosamine-6-phosphate
How it was run: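 Weighted Michaelis–Menten fits across concentrations supplied kcat and KM, based on kobs from one- or two-exponential decay fits to normalised per-tile medians. The data came from barcoded ribozyme variants transcribed in situ by E. coli RNA polymerase on sequenced MiSeq chips and tracked at 37 °C by a hybridised Cy3 probe. Glucosamine-6-phosphate (40 μM to 10 mM) in HEPES/KCl/Mg(OAc)2 buffer was flowed in.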

Variant	self-cleavage kobs at 10000 uM GlcN6P [s⁻¹]
U27G A42U	0.000136 ± 3e-05
U17A A18C C19A A20G A52G U57G C67A	8.22e-05 ± 1.7e-05
A36C U69A C70U	6.82e-05 ± 1.5e-05
A39U G41C U49A C61U	< 1e-05
A15G U31A A36G C58U	< 1e-05
C16U G26U U31C	5.34e-05 ± 1.7e-05
U30C U31G C70G	0.000168 ± 4.5e-05
A6G G29U G43C C61U C67U	< 1e-05
G13U C61G C68G	< 1e-05
A52U C58G U65G	< 1e-05
C8U C34A A53C C71A	< 1e-05
G29U G32A A39U	0.00055 ± 8.7e-05
G13U C50G C70U	5.49e-05 ± 1.2e-05
G29A G43U G51A	< 1e-05
A48U A52C G60A A64C	< 1e-05
A15U G44U C61A	< 1e-05
G35C A39U G41C C61A	< 1e-05
A33C G51A A64U	< 1e-05
G7A G9A A53G G60A U65A C67A	0.000102 ± 2.7e-05
G29U U31G G32C C67A C68G	5.79e-05 ± 2.8e-05
C8G G40C G59C C67G C71U	< 1e-05
A33C A36C C50U C68A	< 1e-05
A12C A15U G40U	0.00018 ± 4e-05
A53U C70G C71G	2.8e-05 ± 1.2e-05

Variant	self-cleavage kobs at 10000 uM GlcN6P [s⁻¹]
U30G A48C	5.11e-05 ± 1.6e-05
U45G A53G A64U	8.08e-05 ± 1.8e-05
G44C U45A U46G	3.99e-05 ± 2e-05
A33C G38U G41U G43A U56A	< 1e-05
C8A A15U U47C U69A	< 1e-05
A42U U56C C71U	5.21e-05 ± 2e-05
A6G C8U U30A G40C A64C U65A	< 1e-05
G13A C58U	8.94e-05 ± 8.9e-06
G41A G66A C68U	3.05e-05 ± 1.3e-05
A48C C61G C70G	< 1e-05
G35U G40C A53U U54A	< 1e-05
A33G A39U U49C C68G	< 1e-05
A15G G60A	3.03e-05 ± 1.1e-05
G32U C34A G37U	< 1e-05
C10A G32A G60C G63A	< 1e-05
G29C G40A A42G	8.98e-05 ± 2.9e-05
U55G C68A C71U	2.99e-05 ± 1.4e-05
A33G C58U C67U	< 1e-05
A20U G32C	7.58e-05 ± 2.1e-05
G7A C11G A14C A48G A64G	< 1e-05
C11A U30C A39G	0.000114 ± 2.3e-05
G9U A15U A42C U57G	< 1e-05
C11A G41U G43U G44A G51C G63A	< 1e-05
A6C A12C C58G	< 1e-05

Variant	self-cleavage kobs at 10000 uM GlcN6P [s⁻¹]
G38C G43C G59C	< 1e-05
C8A G41U U46G G63A	< 1e-05
G7C A39C C61A C67A	< 1e-05
G35A G37C U47C	< 1e-05
C19A C34G	< 1e-05
C11U A42C U55C C70U	< 1e-05
G29C A52U A53C C68G	< 1e-05
A12G G51C G60U	< 1e-05
G9U G32U G37U	< 1e-05
A42G G59U	4.33e-05 ± 9.8e-06
G37C U46A G60U	< 1e-05
U56C U57G G59U	< 1e-05
G9A C11U U30C A52U G62U	< 1e-05
A36U U49A A53U	3.89e-05 ± 9.3e-06
A12U G13U U31C G40A G44A U56A	< 1e-05
A39C G44C G60U	< 1e-05
G41U A53G C68U	4.96e-05 ± 1.3e-05
C11U A39G C58G	7.12e-05 ± 1.7e-05
G26U U57G	5.83e-05 ± 2e-05
G7U G13U G63U	< 1e-05
U31G U55G U69G	6.94e-05 ± 1.1e-05
G9U A14C A36C U46A	< 1e-05
A39U C67G C71A	7.84e-05 ± 1.5e-05
A33G C34U C50G C67U	0.000194 ± 3.6e-05

Variant	self-cleavage kobs at 10000 uM GlcN6P [s⁻¹]
C8G U45G U55C C71A	< 1e-05
C16U G40U G66U	4.28e-05 ± 1.2e-05
G32A C34U G51C	< 1e-05
A33C G62C C70U	< 1e-05
A14C G38U G63U C68A	4.08e-05 ± 1.9e-05
G7A U31C C50U U65G	< 1e-05
A14G G44C C67U	0.00278 ± 0.0013
G9U G32C C34G U54G A64U C71A	< 1e-05
A6G C34A A39G	< 1e-05
A36U G40A G63U	< 1e-05
G29U C34A G59A U65C	< 1e-05
G40A G51C C67U	< 1e-05
C11A A33C A42C C50G	< 1e-05
A36C A39U U55A	< 1e-05
C11A U30G C67A	9.25e-05 ± 1.7e-05
G7C A14G A39C A48G A53U	< 1e-05
A15U U30G A48U A53G	0.000112 ± 3.6e-05
C10G G13A G41C C50U C67A	< 1e-05
A15G U65A G66U	0.000274 ± 4.1e-05
C50A G62C	< 1e-05
A14U A42G C61G	< 1e-05
